{
  "source": "patent US20210061908A1",
  "about": "(IOMX THERAPEUTICS, published 2021)",
  "binders": {"B1": {"name": "B-006 (chain-swapped, human IgG1 format) (antibody, V domains shown)", "VH": "EVQLVESGGGLIQPGGSLRLSCAASGFTVSSNYMSWVRQAPGKGLEWVSVIYSGGSTYYADSVKGRFTISRDNSKNTLYLQMNSLRAEDTAVYYCARGNPYYYGDLQVNFDYWGQGTLVTVSS", "VL": "QAVVTQEPSLTVSPGETVTLTCASSTGAVTSGYYPNWFQQRPGQAPRALIYSTSNKDSWTPARFSGSLLGGKAALTLSGVQPEDEAEYYCLLYYGGAWVFGGGTKLTVL", "notes": "VH of A-006 with VL of A-005; IgG1 format; also called B6; Chains-B-006"}},
  "key": {"[1]": {"biological_target": "T1, extracellular domain (ECD) of human IGSF11 (VSIG3), HIS-tagged (human, UniProt Q5DX21 23-241, biotinylated in the ELISA of Example 4 (site not stated))", "T1 construct": "also called HIS-IGSF11; IGSF11-HIS; not shown: HIS6 tag", "T1 sequence": "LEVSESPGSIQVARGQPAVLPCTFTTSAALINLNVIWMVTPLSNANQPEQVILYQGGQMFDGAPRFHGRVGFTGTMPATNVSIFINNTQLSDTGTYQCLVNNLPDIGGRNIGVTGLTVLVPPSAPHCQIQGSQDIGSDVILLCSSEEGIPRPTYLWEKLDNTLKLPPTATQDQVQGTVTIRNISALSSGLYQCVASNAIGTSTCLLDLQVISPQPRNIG", "assay": "ELISA: IGSF11-HIS coated, IgG1 antibody titrated, anti-human antibody-HRP and TMB; X-axis nM and Y-axis absorbance per legend paragraph 30"}, "[2]": {"biological_target": "T1, extracellular domain (ECD) of human …", "assay": "blocking ELISA (Example 5): IgG titrated and pre-incubated with 200 nM his-tagged IGSF11 ECD, complexes added to immobilised VSIR-Fc, bound IGSF11 detected with anti-hexahistidine-HRP; blocked ligand: VSIR-Fc"}},
  "data": [
    {"binder": "B1", "values": [
      {"measurement": "EC50 (read off the curve)", "setting": "[1]", "value": "~0.02", "unit": "nM"},
      {"measurement": "IC50 (read off the curve)", "setting": "[2]", "value": "~5", "unit": "nM"}
    ]}
  ]
}
